Reference: the Human Domainome abundance scans (Beltran et al. 2025)
± gives the uncertainty stated by the source.

B1: Chromodomain-helicase-DNA-binding protein 4, residues 623 to 675; numbered along this chain, Q14839 (parent)
chain: MIHRILNHSVDKKGHVHYLIKWRDLPYDQASWESEDVEIQDYDLFKQSYWNHR

Variants of: B1
Test: abundance fitness (aPCA) (normalised: wild type 0, dead -1); higher = more abundant; growth selection in yeast, the domain comes from the species named
Settings: Homo sapiens
In the case of G14F, the abundance fitness is reported as -0.716 ± 0.11. In the case of G14A, the abundance fitness is reported as -0.919 ± 0.13. G14T showed an abundance fitness of -1.08 ± 0.14. In the case of G14H, the abundance fitness is reported as -0.86 ± 0.1. Work on G14Y yielded an abundance fitness of -0.634 ± 0.093. For G14P, the abundance fitness was -0.714 ± 0.11. With G14Q the abundance fitness was -0.714 ± 0.16. G14K showed an abundance fitness of -0.404 ± 0.21. With G14M the abundance fitness was -1.05 ± 0.2. With G14I the abundance fitness was -0.656 ± 0.12. In the case of G14N, the abundance fitness is reported as -0.451 ± 0.084. In the case of G14R, the abundance fitness is reported as -0.761 ± 0.1. In the case of G14E, the abundance fitness is reported as -1.12 ± 0.28. For G14C, the abundance fitness was -0.785 ± 0.12. In the case of G14D, the abundance fitness is reported as -0.727 ± 0.11. With G14W the abundance fitness was -0.726 ± 0.18. Work on G14S yielded an abundance fitness of -0.768 ± 0.087. Work on S9G yielded an abundance fitness of -0.553 ± 0.098. In the case of S9I, the abundance fitness is reported as -0.021 ± 0.11. For S9R, the abundance fitness was 0.156 ± 0.076. Variant S9L has an abundance fitness of -0.158 ± 0.092. S9Y gave an abundance fitness of -0.177 ± 0.11. Work on S9N yielded an abundance fitness of -0.484 ± 0.14. Work on S9D yielded an abundance fitness of -0.341 ± 0.14. In the case of S9P, the abundance fitness is reported as -0.766 ± 0.15. S9V gave an abundance fitness of -0.407 ± 0.11. S9T showed an abundance fitness of -0.068 ± 0.096. In the case of S9M, the abundance fitness is reported as -0.105 ± 0.12. With S9E the abundance fitness was -0.112 ± 0.14. S9C showed an abundance fitness of -0.062 ± 0.11. With S9W the abundance fitness was -0.198 ± 0.1. With S9H the abundance fitness was -0.066 ± 0.11. Variant S9K has an abundance fitness of 0.139 ± 0.095. S9A gave an abundance fitness of -0.398 ± 0.16. Work on S9F yielded an abundance fitness of -0.127 ± 0.1. S9Q gave an abundance fitness of -0.095 ± 0.12. Variant R4Q has an abundance fitness of -0.233 ± 0.16. R4N gave an abundance fitness of -0.331 ± 0.15. In the case of R4Y, the abundance fitness is reported as -0.102 ± 0.15. R4E gave an abundance fitness of 0.058 ± 0.14. With R4D the abundance fitness was -0.479 ± 0.17. For R4C, the abundance fitness was -0.08 ± 0.11. R4L gave an abundance fitness of -0.221 ± 0.09. R4S showed an abundance fitness of -0.117 ± 0.087. Work on R4T yielded an abundance fitness of -0.047 ± 0.1. R4M showed an abundance fitness of -0.136 ± 0.12. R4A gave an abundance fitness of -0.535 ± 0.15. Work on R4W yielded an abundance fitness of -0.263 ± 0.12. Variant R4V has an abundance fitness of -0.371 ± 0.11. For R4P, the abundance fitness was -0.788 ± 0.14. Variant R4K has an abundance fitness of 0.145 ± 0.11. With R4G the abundance fitness was -0.481 ± 0.1. Variant R4H has an abundance fitness of -0.108 ± 0.14. L6D gave an abundance fitness of -0.907 ± 0.15. For L6N, the abundance fitness was -0.804 ± 0.12. L6I showed an abundance fitness of -0.046 ± 0.087. L6S gave an abundance fitness of -0.824 ± 0.096. In the case of L6F, the abundance fitness is reported as -0.73 ± 0.12. For L6K, the abundance fitness was -0.918 ± 0.26. With L6C the abundance fitness was -0.333 ± 0.11. In the case of L6A, the abundance fitness is reported as -0.79 ± 0.12. With L6Q the abundance fitness was -0.6 ± 0.17. Work on L6R yielded an abundance fitness of -0.805 ± 0.11. Variant L6Y has an abundance fitness of -0.735 ± 0.12. Work on L6H yielded an abundance fitness of -0.76 ± 0.11. L6M showed an abundance fitness of -0.542 ± 0.17. L6W gave an abundance fitness of -1.07 ± 0.2. For L6P, the abundance fitness was -0.695 ± 0.11. L6V gave an abundance fitness of -0.231 ± 0.089. Variant L6T has an abundance fitness of -0.75 ± 0.1. In the case of H8M, the abundance fitness is reported as -0.847 ± 0.14. Variant H8I has an abundance fitness of -0.645 ± 0.12. Variant H8C has an abundance fitness of -0.647 ± 0.15. In the case of H8W, the abundance fitness is reported as -0.863 ± 0.15. H8R showed an abundance fitness of -0.634 ± 0.1. With H8P the abundance fitness was -0.831 ± 0.17. Work on H8V yielded an abundance fitness of -0.918 ± 0.092. With H8N the abundance fitness was -0.75 ± 0.17. Variant H8A has an abundance fitness of -0.857 ± 0.14. In the case of H8T, the abundance fitness is reported as -0.791 ± 0.21. H8F showed an abundance fitness of -0.875 ± 0.18. Work on H8L yielded an abundance fitness of -0.806 ± 0.09. Variant H8E has an abundance fitness of -0.69 ± 0.17. Variant H8K has an abundance fitness of -0.956 ± 0.24. H8Y gave an abundance fitness of -0.803 ± 0.14. Variant H8D has an abundance fitness of -0.92 ± 0.16. For H8G, the abundance fitness was -0.832 ± 0.11. H8Q gave an abundance fitness of -0.813 ± 0.2. Variant H8S has an abundance fitness of -0.713 ± 0.11. With H3V the abundance fitness was -0.629 ± 0.12. In the case of H3R, the abundance fitness is reported as -0.376 ± 0.082. With H3I the abundance fitness was -1.05 ± 0.28. Work on H3S yielded an abundance fitness of -0.047 ± 0.09. Work on H3E yielded an abundance fitness of 0.437 ± 0.14. Work on H3P yielded an abundance fitness of -0.741 ± 0.16. In the case of H3T, the abundance fitness is reported as -0.282 ± 0.12. With H3M the abundance fitness was -0.416 ± 0.14. In the case of H3N, the abundance fitness is reported as -0.266 ± 0.13. H3F showed an abundance fitness of -0.392 ± 0.19. Variant H3A has an abundance fitness of -0.086 ± 0.096. For H3K, the abundance fitness was -0.56 ± 0.16. Work on H3D yielded an abundance fitness of 0.235 ± 0.15. H3Q gave an abundance fitness of 0.045 ± 0.12. H3W gave an abundance fitness of -0.245 ± 0.12. H3Y gave an abundance fitness of -0.16 ± 0.13. For H3C, the abundance fitness was -0.094 ± 0.13. In the case of I5H, the abundance fitness is reported as -0.721 ± 0.13. I5N gave an abundance fitness of -1.01 ± 0.21. With I5F the abundance fitness was -0.827 ± 0.16. With I5A the abundance fitness was -0.778 ± 0.14. Variant I5P has an abundance fitness of -0.522 ± 0.14. I5W gave an abundance fitness of -0.767 ± 0.2. I5G gave an abundance fitness of -0.933 ± 0.15. I5M gave an abundance fitness of -0.746 ± 0.21. I5Y showed an abundance fitness of -1.02 ± 0.19. Work on I5C yielded an abundance fitness of -1.07 ± 0.18. In the case of I5R, the abundance fitness is reported as -0.81 ± 0.11. With I5Q the abundance fitness was -0.591 ± 0.2. I5L showed an abundance fitness of -0.497 ± 0.099. For I5T, the abundance fitness was -0.914 ± 0.14. With I5V the abundance fitness was -0.842 ± 0.14. For I5S, the abundance fitness was -0.823 ± 0.12. With I5D the abundance fitness was -0.999 ± 0.2. For H15A, the abundance fitness was -0.126 ± 0.087. Variant H15Q has an abundance fitness of -0.021 ± 0.11. H15S showed an abundance fitness of -0.023 ± 0.089. With H15V the abundance fitness was -0.122 ± 0.088. H15L showed an abundance fitness of -0.171 ± 0.089. Variant H15R has an abundance fitness of 0.057 ± 0.079. For H15K, the abundance fitness was 0.205 ± 0.13. Work on H15F yielded an abundance fitness of -0.344 ± 0.17. Work on H15D yielded an abundance fitness of -0.511 ± 0.14. For H15N, the abundance fitness was 0.081 ± 0.12. Work on H15E yielded an abundance fitness of -0.123 ± 0.13. H15M showed an abundance fitness of -0.134 ± 0.1. Work on H15C yielded an abundance fitness of -0.171 ± 0.14. H15I showed an abundance fitness of 0.029 ± 0.12. Work on D11Y yielded an abundance fitness of -0.792 ± 0.12. D11S gave an abundance fitness of -0.305 ± 0.084. D11I gave an abundance fitness of -0.812 ± 0.12. Work on D11A yielded an abundance fitness of -0.679 ± 0.12. With D11G the abundance fitness was -0.597 ± 0.15. For D11M, the abundance fitness was -1.09 ± 0.28. For D11T, the abundance fitness was -0.518 ± 0.097. Work on D11K yielded an abundance fitness of -1.03 ± 0.36. Work on D11N yielded an abundance fitness of -0.201 ± 0.085. For D11V, the abundance fitness was -0.951 ± 0.14. With D11C the abundance fitness was -0.403 ± 0.12. For D11E, the abundance fitness was -0.499 ± 0.22. With D11Q the abundance fitness was -0.928 ± 0.21. D11W gave an abundance fitness of -0.694 ± 0.22. Work on D11P yielded an abundance fitness of -0.913 ± 0.13. For D11R, the abundance fitness was -0.762 ± 0.12. D11L showed an abundance fitness of -0.875 ± 0.1. Variant K13Q has an abundance fitness of -0.133 ± 0.11. For K13M, the abundance fitness was -0.162 ± 0.12. Variant K13Y has an abundance fitness of -0.214 ± 0.092. Work on K13F yielded an abundance fitness of -0.079 ± 0.088. Variant K13N has an abundance fitness of -0.123 ± 0.093. K13L showed an abundance fitness of -0.36 ± 0.078. For K13D, the abundance fitness was 0.098 ± 0.1. K13W gave an abundance fitness of -0.492 ± 0.16. For K13P, the abundance fitness was -0.828 ± 0.11. With K13C the abundance fitness was -0.267 ± 0.093. K13E gave an abundance fitness of -0.066 ± 0.13. With K13H the abundance fitness was -0.062 ± 0.09. Variant K13A has an abundance fitness of -0.25 ± 0.085.
